Target: the molecule itself
Assay: not stated; purified HPeV1 virions heated to 56 °C for 30 min, then 4 °C for 10 days (1x selection buffer: 10 mM Tris-HCl pH 7.7, 150 mM NaCl, 1 mM MgCl2); whole capsids removed by centrifugation; how the pentamers were shown is in Supplementary Fig. 1

B1: HPeV1 (Harris strain) capsid protein protomer of VP0, VP1 and VP3 (complex)
chain 1: METIKSIADMATGVVSSVDSTINAVNEKVESVGNEIGGNLLTKVADDASNILGPNCFATTAEPENKNVVQATTTVNTTNLTQHPSAPTMPFSPDFSNVDNFHSMAYDITTGDKNPSKLVRLETHEWTPSWARGYQITHVELPKVFWDHQDKPAYGQSRYFAAVRCGFHFQVQVNVNQGTAGSALVVYEPKPVVTYDSKLEFGAFTNLPHVLMNLAETTQADLCIPYVADTNYVKTDSSDLGQLKVYVWTPLSIPTGSANQVDVTILGSLLQLDFQNPRVFAQDVNIYDN
chain 2: NSWGSQMDLTDPLCIEDDTENCKQTMSPNELGLTSAQDDGPLGQEKPNYFLNFRSMNVDIFTVSHTKVDNLFGRAWFFMEHTFTNEGQWRVPLEFPKQGHGSLSLLFAYFTGELNIHVLFLSERGFLRVAHTYDTSNDRVNFLSSNGVITVPAGEQMTLSAPYYSNKPLRTVRDNNSLGYLMCKPFLTGTSTGKIEVYLSLRCPNFFFPLPAPKVTSSRALRGDMANLTNQ
chain 3: APNGKKKNWKKIMTMSTKYKWTRTKIDIAEGPGSMNMANVLCTTGAQSVALVGERAFYDPRTAGSKSRFDDLVKIAQLFSVMADSTTPSENHGVDAKGYFKWSATTAPQSIVHRNIVYLRLFPNLNVFVNSYSYFRGSLVLRLSVYASTFNRGRLRMGFFPNATTDSTSTLDNAIYTICDIGSDNSFEITIPYSFSTWMRKTNGHPIGLFQIEVLNRLTYNSSSPSEVYCIVQGKMGQDARFFCPTGSVVTFQ
notes: capsid protein VP0 of human parechovirus 1, Harris strain; cut product of the viral polyprotein, not cleaved into VP2 and VP4; capsid protein VP1 of human parechovirus 1, Harris strain; cut product of the viral polyprotein; capsid protein VP3 of human parechovirus 1, Harris strain; One protomer holds one copy each of VP0, VP1 and VP3; five protomers form the pentameric capsomer, and the capsid is …
- stoichiometry N: 5

Reference: paper PMC5431903, “Genomic RNA folding mediates assembly of human parechovirus” (Nature Communications, 2017)
